According to US20250263778A1 (Hoffmann-La Roche, published 2025):
Changes are numbered by the printed parent chain. Where two headings read alike, the source gives them in different places. Blank lines part the entries; values can stand above or below the binder they belong to.

Assays:
[1] = target: T1, human LRP8 (Low-density lipoprotein receptor-related protein 8), biotinylated (human, UniProt Q14114 33-826, limits assumed, biotinylated); assay: ELISA, biotinylated human LRP8
T1 construct: also called hu-antigen; human antigen
T1 sequence (Q14114 33-826 limits assumed): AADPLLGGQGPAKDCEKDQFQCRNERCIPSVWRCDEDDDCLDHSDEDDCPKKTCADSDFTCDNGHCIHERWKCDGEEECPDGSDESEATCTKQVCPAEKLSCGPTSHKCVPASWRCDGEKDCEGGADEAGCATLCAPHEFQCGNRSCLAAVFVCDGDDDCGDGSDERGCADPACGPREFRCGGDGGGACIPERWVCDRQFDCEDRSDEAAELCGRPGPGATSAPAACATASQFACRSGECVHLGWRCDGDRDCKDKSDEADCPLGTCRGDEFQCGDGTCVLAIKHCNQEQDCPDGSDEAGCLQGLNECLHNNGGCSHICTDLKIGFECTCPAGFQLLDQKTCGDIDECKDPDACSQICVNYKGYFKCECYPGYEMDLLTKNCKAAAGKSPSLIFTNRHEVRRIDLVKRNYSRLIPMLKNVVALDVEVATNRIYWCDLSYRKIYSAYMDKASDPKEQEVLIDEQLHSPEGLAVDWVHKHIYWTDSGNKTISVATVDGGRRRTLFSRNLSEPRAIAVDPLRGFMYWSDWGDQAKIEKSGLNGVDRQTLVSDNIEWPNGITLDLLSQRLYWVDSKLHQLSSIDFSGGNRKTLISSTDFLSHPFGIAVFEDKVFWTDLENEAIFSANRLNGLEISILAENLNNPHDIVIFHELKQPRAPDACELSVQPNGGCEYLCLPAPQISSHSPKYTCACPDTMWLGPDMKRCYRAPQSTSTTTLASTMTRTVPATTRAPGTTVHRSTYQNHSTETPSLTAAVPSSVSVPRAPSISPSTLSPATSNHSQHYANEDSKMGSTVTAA
Experimental: The antigen, biotinylated human LRP8, was incubated with 5 μL sample containing the anti-LRP8 antibody at a concentration of 250 ng/mL in a total volume of 25 μL in PBS, 0.5% BSA and 0.05% Tween in a 384 w microtiterplate (Maxisorb (with Streptavidin, Nunc). After 1.5 hrs. incubation at 25° C. unbound antibody was removed by washing 6 times with 90 μL PBS (dispense and aspiration). The antigen-antibody complex was detected by an anti-rabbit antibody conjugated to POD (ECL anti-rabbit IgG-POD, Cat. No. NA9340V; POD=peroxidase). 20-30 min after adding 35 μL POD-substrate 3,3′,5,5′-tetramethyl benzidine (TMB; Piercenet, Cat. No. 34021) the optical density was determined at 370 nm. The EC₅₀ value was calculated with a four parameter logistic model using GraphPad Prism 6.0 software.

[2] = target: T1, human LRP8 (Low-density lipoprotein …); assay: ELISA, biotinylated human LRP8; remark: listed apart in the source
[3] = target: T2, murine LRP8, biotinylated (murine, UniProt Q924X6 29-858, limits assumed, biotinylated); assay: ELISA, biotinylated murine LRP8
T2 construct: also called mu-antigen; murine antigen
T2 sequence (Q924X6 29-858 limits assumed): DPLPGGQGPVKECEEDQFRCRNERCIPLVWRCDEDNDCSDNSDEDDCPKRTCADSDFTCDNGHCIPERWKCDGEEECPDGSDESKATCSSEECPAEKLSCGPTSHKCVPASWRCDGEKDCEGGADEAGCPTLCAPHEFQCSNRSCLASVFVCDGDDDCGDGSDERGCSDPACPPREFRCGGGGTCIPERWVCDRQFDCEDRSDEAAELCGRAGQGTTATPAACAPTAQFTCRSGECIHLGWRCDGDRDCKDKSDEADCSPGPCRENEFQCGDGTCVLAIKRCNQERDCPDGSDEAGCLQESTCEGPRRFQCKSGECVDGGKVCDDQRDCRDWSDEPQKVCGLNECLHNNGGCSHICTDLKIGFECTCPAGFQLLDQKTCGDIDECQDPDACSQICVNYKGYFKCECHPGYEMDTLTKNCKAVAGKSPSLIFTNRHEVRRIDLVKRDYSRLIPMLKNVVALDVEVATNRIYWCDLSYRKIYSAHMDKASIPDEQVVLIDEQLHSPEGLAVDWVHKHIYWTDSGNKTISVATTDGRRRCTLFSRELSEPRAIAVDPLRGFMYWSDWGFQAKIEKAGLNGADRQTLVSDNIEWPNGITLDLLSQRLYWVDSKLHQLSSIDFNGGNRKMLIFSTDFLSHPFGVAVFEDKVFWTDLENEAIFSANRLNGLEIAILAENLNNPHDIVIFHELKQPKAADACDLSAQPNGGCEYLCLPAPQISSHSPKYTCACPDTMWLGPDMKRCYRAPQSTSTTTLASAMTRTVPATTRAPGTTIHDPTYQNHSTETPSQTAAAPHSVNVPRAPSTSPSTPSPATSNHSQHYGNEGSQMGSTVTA

[4] = target: T2, murine LRP8, biotinylated; assay: ELISA, biotinylated murine LRP8; remark: listed apart in the source

- EC50 [1]: < 0.02 µg/mL
- EC50 [2]: < 0.02 µg/mL
- EC50 [3]: < 0.02 µg/mL
- EC50 [4]: < 0.02 µg/mL
B1: BCC.763 (antibody, V domains shown)
VH: CQSVEESGGRLVTPGTPLTLTCTASGFSLSSYNMNWVRQAPGKGLEWIGYINKGGSAYYASWAKGRFTISRTSTTVDLKMTSPTTEDTATYFCVRSGGGGNLNLWGQGTLVTVSS
VL: AAVLTQTPSPVSAAVGGTVTISCQSSPNILGNYLSWFQQKPGQPPKLLIYYTSTLASGVPSRFKGSGSGTQFTLTISDVQCDDAATYYCLGVYRSDSDNVFGGGTEVVVK
notes: Rabbit IgG, kappa; also called antibody 763

- EC50 [2]: < 0.02 µg/mL
- EC50 [4]: < 0.02 µg/mL
B2: BCC.763-1 (antibody, V domains shown)
VH: B1 VH with T85P
VL: B1 VL
notes: recombinant rabbit IgG, kappa; Positions are Wolfguy indices, not positions on the entry; tie inferred

- EC50 [2]: < 0.02 µg/mL
- EC50 [4]: < 0.02 µg/mL
B3: BCC.763-2 (antibody, V domains shown)
VH: B1 VH with E46A, R71K
VL: B1 VL
notes: recombinant rabbit IgG, kappa; Positions are Wolfguy indices; tie inferred; also called VH variant 2103:7194:16368 1:N:0:1

- EC50 [2]: < 0.05 µg/mL
- EC50 [4]: < 0.02 µg/mL
B4: BCC.763-4 (antibody, V domains shown)
VH: B1 VH with Y59D, S61N, T85P
VL: B1 VL
notes: recombinant rabbit IgG, kappa; Positions are Wolfguy indices; tie inferred; copies: 2 + 2
